Measured values from publication PMC7020254.

Key:
[1] = test system: P00451; assay: AUC; sedimentation velocity, 105,000 g, 20 C, A280; Helixate desalted into HBS/Ca/PS-80, treated 10 min with 80 uM ClO- or control buffer, exchanged into HBS/Ca/PS-80; c(s) 0-100 S; aggregates 12-100 S relative to 5-100 S
[2] = test system: P00451; assay: AUC; sedimentation velocity, 105,000 g, 20 C, A280; Helixate in 2x formulation buffer treated with 80 uM ClO- or control buffer, then buffer exchange on a desalting column; c(s) 0-100 S; aggregates 12-100 S relative to 5-100 S
[3] = test system: P00451; assay: AUC; sedimentation velocity, 105,000 g, 20 C, A280; Helixate in its therapeutic formulation buffer; c(s) 0-200 S; aggregates integrated 15-100 S
[4] = test system: P00451; assay: AUC; sedimentation velocity, 105,000 g, 20 C, A280; Helixate exchanged into HBS/Ca/PS-80 and immediately run; c(s) 0-200 S; aggregates integrated 12-100 S

| Substance | percent of signal in aggregates (12-100 S relative to 5-100 S) [1] | percent of signal in aggregates (12-100 S relative to 5-100 S) [2] | percent of signal in aggregates (15-100 S) [3] | percent of signal in aggregates (12-100 S) [4] |
| --- | --- | --- | --- | --- |
| Helixate FS (recombinant full-length factor VIII) oxidized with 80 uM ClO- | 13.4 and 13.3% of the signal | 14.5 and 9.2% | – | – |
| Helixate FS (recombinant full-length factor VIII), non-oxidized | 13.4 and 13.3% of the signal | 14.5 and 9.2% | 18.9% and 15.9% | 18.9% and 15.9% |
